The source of these data is publication doi:10.1101/2023.03.17.532973 (bioRxiv, 2023).

The data set “cryo-EM structure” concerns the molecule itself. As to the kind of experiment: cryo-EM structure.
The target of data set [1] is T1, SHMT1 (cytosolic serine hydroxymethyltransferase) WT (Homo sapiens, UniProt P34896 1-483).
T1 sequence: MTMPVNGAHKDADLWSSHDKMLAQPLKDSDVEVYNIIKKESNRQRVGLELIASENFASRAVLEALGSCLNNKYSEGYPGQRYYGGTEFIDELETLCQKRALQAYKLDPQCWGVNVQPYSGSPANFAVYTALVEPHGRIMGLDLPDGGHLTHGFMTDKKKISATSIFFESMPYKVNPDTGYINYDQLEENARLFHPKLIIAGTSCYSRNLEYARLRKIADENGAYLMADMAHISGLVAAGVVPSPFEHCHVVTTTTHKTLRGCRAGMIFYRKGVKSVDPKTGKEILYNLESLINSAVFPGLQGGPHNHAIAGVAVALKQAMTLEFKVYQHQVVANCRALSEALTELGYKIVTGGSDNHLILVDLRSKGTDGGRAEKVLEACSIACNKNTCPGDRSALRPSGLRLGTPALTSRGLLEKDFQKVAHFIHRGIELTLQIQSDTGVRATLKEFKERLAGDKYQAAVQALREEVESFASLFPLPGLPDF
Put plainly: EMSA. On the technique in general: In EMSA bound probe runs differently from free probe, usually more slowly.

B1: human cytosolic serine hydroxymethyltransferase (SHMT1), wild type (enzyme)
chain: DADLWSSHDKMLAQPLKDSDVEVYNIIKKESNRQRVGLELIASENFASRAVLEALGSCLNNKYSEGYPGQRYYGGTEFIDELETLCQKRALQAYKLDPQCWGVNVQPYSGSPANFAVYTALVEPHGRIMGLDLPDGGHLTHGFMTDKKKISATSIFFESMPYKVNPDTGYINYDQLEENARLFHPKLIIAGTSCYSRNLEYARLRKIADENGAYLMADMAHISGLVAAGVVPSPFEHCHVVTTTTHKTLRGCRAGMIFYRKGVKSVDPKTGKEILYNLESLINSAVFPGLQGGPHNHAIAGVAVALKQAMTLEFKVYQHQVVANCRALSEALTELGYKIVTGGSDNHLILVDLRSKGTDGGRAEKVLEACSIACNKNTCPGDRSALRPSGLRLGTPALTSRGLLEKDFQKVAHFIHRGIELTLQIQSDTGVRATLKEFKERLAGDKYQAAVQALREEVESFASLFPLPGL
Turning to B1, in the data set “cryo-EM structure”, the “stoichiometry N” value stood at 4.

As for UGUGGCCUUUUGGGAAUUGUAGUUCGCCCACUCACCGCUUUUUUCUUUAU (structured_RNA) [UTR2 1-50 Rv (reverse complement)], the binding result in data set [1] is reported as “binds”.

Broadly, the stoichiometry N is a count of units in the complex or per binding partner.
